*1 amine or outer side, *2 acyl side, *3 side chain or, on linkers, in order; H or OH if unused. Where no end group is shown, it is not given here. Side-chain parts run from the residue outwards. [ ]: non-standard residue; d: D form. The star is where a group is joined. C18 diacid = O=C(O)CCCCCCCCCCCCCCCCC(=O)*; C16 diacid = O=C(O)CCCCCCCCCCCCCCC(=O)*; γGlu = O=C(O)[C@H](CCC(=O)[*:2])N[*:1]; NMeI = CC[C@H](C)[C@H](NC)C(=O)O; Abu = CC[C@H](N)C(=O)O; Dap = NC[C@H](N)C(=O)O; AEEA = NCCOCCOCC(=O)O; Aib = CC(C)(N)C(=O)O
T1: CRF1R receptor (UniProt P34998 24-415, limits assumed)
T1 sequence (looked up): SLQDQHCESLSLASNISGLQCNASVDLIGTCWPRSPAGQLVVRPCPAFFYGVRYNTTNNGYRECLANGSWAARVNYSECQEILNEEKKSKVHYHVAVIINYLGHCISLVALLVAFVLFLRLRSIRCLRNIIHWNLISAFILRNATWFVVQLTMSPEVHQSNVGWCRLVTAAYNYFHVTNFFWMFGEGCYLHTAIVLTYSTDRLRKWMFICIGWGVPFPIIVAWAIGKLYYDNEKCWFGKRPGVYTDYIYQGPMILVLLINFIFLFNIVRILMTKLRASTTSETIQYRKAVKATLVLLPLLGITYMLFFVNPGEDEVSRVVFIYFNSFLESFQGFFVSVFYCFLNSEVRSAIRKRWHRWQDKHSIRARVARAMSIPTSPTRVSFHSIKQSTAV

B1: SEQ ID NO 137 (peptide)
peptide: [NMeI]VLSLD[dV]PIKLK([γGlu-C18 diacid])KILLEQEKQKKQREQAETN[Aib]QILAQV-NH2
modifications: N-terminus assumed
SMILES: CC[C@H](C)[C@H](NC)C(=O)N[C@H](C(=O)N[C@@H](CC(C)C)C(=O)N[C@@H](CO)C(=O)N[C@@H](CC(C)C)C(=O)N[C@@H](CC(=O)O)C(=O)N[C@@H](C(=O)N1CCC[C@H]1C(=O)N[C@H](C(=O)N[C@@H](CCCCN)C(=O)N[C@@H](CC(C)C)C(=O)N[C@@H](CCCCNC(=O)CC[C@H](NC(=O)CCCCCCCCCCCCCCCCC(=O)O)C(=O)O)C(=O)N[C@@H](CCCCN)C(=O)N[C@H](C(=O)N[C@@H](CC(C)C)C(=O)N[C@@H](CC(C)C)C(=O)N[C@@H](CCC(=O)O)C(=O)N[C@@H](CCC(N)=O)C(=O)N[C@@H](CCC(=O)O)C(=O)N[C@@H](CCCCN)C(=O)N[C@@H](CCC(N)=O)C(=O)N[C@@H](CCCCN)C(=O)N[C@@H](CCCCN)C(=O)N[C@@H](CCC(N)=O)C(=O)N[C@@H](CCCNC(=N)N)C(=O)N[C@@H](CCC(=O)O)C(=O)N[C@@H](CCC(N)=O)C(=O)N[C@@H](C)C(=O)N[C@@H](CCC(=O)O)C(=O)N[C@H](C(=O)N[C@@H](CC(N)=O)C(=O)NC(C)(C)C(=O)N[C@@H](CCC(N)=O)C(=O)N[C@H](C(=O)N[C@@H](CC(C)C)C(=O)N[C@@H](C)C(=O)N[C@@H](CCC(N)=O)C(=O)N[C@H](C(N)=O)C(C)C)[C@@H](C)CC)[C@@H](C)O)[C@@H](C)CC)[C@@H](C)CC)C(C)C)C(C)C
B2: SEQ ID NO 69 (peptide)
peptide: [NMeI]VLSLD[dV]PIKLK([γGlu-C16 diacid])KILLEQEKQKKQREQAETN[Abu]QILAQV-NH2
modifications: N-terminus assumed
SMILES: CC[C@H](NC(=O)[C@H](CC(N)=O)NC(=O)[C@@H](NC(=O)[C@H](CCC(=O)O)NC(=O)[C@H](C)NC(=O)[C@H](CCC(N)=O)NC(=O)[C@H](CCC(=O)O)NC(=O)[C@H](CCCNC(=N)N)NC(=O)[C@H](CCC(N)=O)NC(=O)[C@H](CCCCN)NC(=O)[C@H](CCCCN)NC(=O)[C@H](CCC(N)=O)NC(=O)[C@H](CCCCN)NC(=O)[C@H](CCC(=O)O)NC(=O)[C@H](CCC(N)=O)NC(=O)[C@H](CCC(=O)O)NC(=O)[C@H](CC(C)C)NC(=O)[C@H](CC(C)C)NC(=O)[C@@H](NC(=O)[C@H](CCCCN)NC(=O)[C@H](CCCCNC(=O)CC[C@H](NC(=O)CCCCCCCCCCCCCCC(=O)O)C(=O)O)NC(=O)[C@H](CC(C)C)NC(=O)[C@H](CCCCN)NC(=O)[C@@H](NC(=O)[C@@H]1CCCN1C(=O)[C@H](NC(=O)[C@H](CC(=O)O)NC(=O)[C@H](CC(C)C)NC(=O)[C@H](CO)NC(=O)[C@H](CC(C)C)NC(=O)[C@@H](NC(=O)[C@@H](NC)[C@@H](C)CC)C(C)C)C(C)C)[C@@H](C)CC)[C@@H](C)CC)[C@@H](C)O)C(=O)N[C@@H](CCC(N)=O)C(=O)N[C@H](C(=O)N[C@@H](CC(C)C)C(=O)N[C@@H](C)C(=O)N[C@@H](CCC(N)=O)C(=O)N[C@H](C(N)=O)C(C)C)[C@@H](C)CC
B3: SEQ ID NO 70 (peptide)
peptide: [NMeI]VLSLD[dV]PIKLK([γGlu-C16 diacid])KILLEQEKQKKQREQAETN[Dap]QILAQV-NH2
modifications: N-terminus assumed
SMILES: CC[C@H](C)[C@H](NC)C(=O)N[C@H](C(=O)N[C@@H](CC(C)C)C(=O)N[C@@H](CO)C(=O)N[C@@H](CC(C)C)C(=O)N[C@@H](CC(=O)O)C(=O)N[C@@H](C(=O)N1CCC[C@H]1C(=O)N[C@H](C(=O)N[C@@H](CCCCN)C(=O)N[C@@H](CC(C)C)C(=O)N[C@@H](CCCCNC(=O)CC[C@H](NC(=O)CCCCCCCCCCCCCCC(=O)O)C(=O)O)C(=O)N[C@@H](CCCCN)C(=O)N[C@H](C(=O)N[C@@H](CC(C)C)C(=O)N[C@@H](CC(C)C)C(=O)N[C@@H](CCC(=O)O)C(=O)N[C@@H](CCC(N)=O)C(=O)N[C@@H](CCC(=O)O)C(=O)N[C@@H](CCCCN)C(=O)N[C@@H](CCC(N)=O)C(=O)N[C@@H](CCCCN)C(=O)N[C@@H](CCCCN)C(=O)N[C@@H](CCC(N)=O)C(=O)N[C@@H](CCCNC(=N)N)C(=O)N[C@@H](CCC(=O)O)C(=O)N[C@@H](CCC(N)=O)C(=O)N[C@@H](C)C(=O)N[C@@H](CCC(=O)O)C(=O)N[C@H](C(=O)N[C@@H](CC(N)=O)C(=O)N[C@@H](CN)C(=O)N[C@@H](CCC(N)=O)C(=O)N[C@H](C(=O)N[C@@H](CC(C)C)C(=O)N[C@@H](C)C(=O)N[C@@H](CCC(N)=O)C(=O)N[C@H](C(N)=O)C(C)C)[C@@H](C)CC)[C@@H](C)O)[C@@H](C)CC)[C@@H](C)CC)C(C)C)C(C)C
B4: SEQ ID NO 128 (peptide)
peptide: Ac-IVLSLD[dV]PIKLK([γGlu-C18 diacid])KILLEQEKQKKQREQAETN[Dap]QILAQV-NH2
SMILES: CC[C@H](C)[C@H](NC(C)=O)C(=O)N[C@H](C(=O)N[C@@H](CC(C)C)C(=O)N[C@@H](CO)C(=O)N[C@@H](CC(C)C)C(=O)N[C@@H](CC(=O)O)C(=O)N[C@@H](C(=O)N1CCC[C@H]1C(=O)N[C@H](C(=O)N[C@@H](CCCCN)C(=O)N[C@@H](CC(C)C)C(=O)N[C@@H](CCCCNC(=O)CC[C@H](NC(=O)CCCCCCCCCCCCCCCCC(=O)O)C(=O)O)C(=O)N[C@@H](CCCCN)C(=O)N[C@H](C(=O)N[C@@H](CC(C)C)C(=O)N[C@@H](CC(C)C)C(=O)N[C@@H](CCC(=O)O)C(=O)N[C@@H](CCC(N)=O)C(=O)N[C@@H](CCC(=O)O)C(=O)N[C@@H](CCCCN)C(=O)N[C@@H](CCC(N)=O)C(=O)N[C@@H](CCCCN)C(=O)N[C@@H](CCCCN)C(=O)N[C@@H](CCC(N)=O)C(=O)N[C@@H](CCCNC(=N)N)C(=O)N[C@@H](CCC(=O)O)C(=O)N[C@@H](CCC(N)=O)C(=O)N[C@@H](C)C(=O)N[C@@H](CCC(=O)O)C(=O)N[C@H](C(=O)N[C@@H](CC(N)=O)C(=O)N[C@@H](CN)C(=O)N[C@@H](CCC(N)=O)C(=O)N[C@H](C(=O)N[C@@H](CC(C)C)C(=O)N[C@@H](C)C(=O)N[C@@H](CCC(N)=O)C(=O)N[C@H](C(N)=O)C(C)C)[C@@H](C)CC)[C@@H](C)O)[C@@H](C)CC)[C@@H](C)CC)C(C)C)C(C)C
B5: SEQ ID NO 115 (peptide)
peptide: [NMeI]VLSLD[dV]PIKLK([AEEA-AEEA-γGlu-C18 diacid])KILLEQEKQKKQREQAETN[Dap]QILAQV-NH2
modifications: N-terminus assumed
SMILES: CC[C@H](C)[C@H](NC)C(=O)N[C@H](C(=O)N[C@@H](CC(C)C)C(=O)N[C@@H](CO)C(=O)N[C@@H](CC(C)C)C(=O)N[C@@H](CC(=O)O)C(=O)N[C@@H](C(=O)N1CCC[C@H]1C(=O)N[C@H](C(=O)N[C@@H](CCCCN)C(=O)N[C@@H](CC(C)C)C(=O)N[C@@H](CCCCNC(=O)COCCOCCNC(=O)COCCOCCNC(=O)CC[C@H](NC(=O)CCCCCCCCCCCCCCCCC(=O)O)C(=O)O)C(=O)N[C@@H](CCCCN)C(=O)N[C@H](C(=O)N[C@@H](CC(C)C)C(=O)N[C@@H](CC(C)C)C(=O)N[C@@H](CCC(=O)O)C(=O)N[C@@H](CCC(N)=O)C(=O)N[C@@H](CCC(=O)O)C(=O)N[C@@H](CCCCN)C(=O)N[C@@H](CCC(N)=O)C(=O)N[C@@H](CCCCN)C(=O)N[C@@H](CCCCN)C(=O)N[C@@H](CCC(N)=O)C(=O)N[C@@H](CCCNC(=N)N)C(=O)N[C@@H](CCC(=O)O)C(=O)N[C@@H](CCC(N)=O)C(=O)N[C@@H](C)C(=O)N[C@@H](CCC(=O)O)C(=O)N[C@H](C(=O)N[C@@H](CC(N)=O)C(=O)N[C@@H](CN)C(=O)N[C@@H](CCC(N)=O)C(=O)N[C@H](C(=O)N[C@@H](CC(C)C)C(=O)N[C@@H](C)C(=O)N[C@@H](CCC(N)=O)C(=O)N[C@H](C(N)=O)C(C)C)[C@@H](C)CC)[C@@H](C)O)[C@@H](C)CC)[C@@H](C)CC)C(C)C)C(C)C
B6: SEQ ID NO 130 (peptide)
peptide: Ac-IVLSLD[dV]PIKLK([γGlu-C18 diacid])KILLEQEKQKKQREQAETNEQILAQV-NH2
SMILES: CC[C@H](C)[C@H](NC(C)=O)C(=O)N[C@H](C(=O)N[C@@H](CC(C)C)C(=O)N[C@@H](CO)C(=O)N[C@@H](CC(C)C)C(=O)N[C@@H](CC(=O)O)C(=O)N[C@@H](C(=O)N1CCC[C@H]1C(=O)N[C@H](C(=O)N[C@@H](CCCCN)C(=O)N[C@@H](CC(C)C)C(=O)N[C@@H](CCCCNC(=O)CC[C@H](NC(=O)CCCCCCCCCCCCCCCCC(=O)O)C(=O)O)C(=O)N[C@@H](CCCCN)C(=O)N[C@H](C(=O)N[C@@H](CC(C)C)C(=O)N[C@@H](CC(C)C)C(=O)N[C@@H](CCC(=O)O)C(=O)N[C@@H](CCC(N)=O)C(=O)N[C@@H](CCC(=O)O)C(=O)N[C@@H](CCCCN)C(=O)N[C@@H](CCC(N)=O)C(=O)N[C@@H](CCCCN)C(=O)N[C@@H](CCCCN)C(=O)N[C@@H](CCC(N)=O)C(=O)N[C@@H](CCCNC(=N)N)C(=O)N[C@@H](CCC(=O)O)C(=O)N[C@@H](CCC(N)=O)C(=O)N[C@@H](C)C(=O)N[C@@H](CCC(=O)O)C(=O)N[C@H](C(=O)N[C@@H](CC(N)=O)C(=O)N[C@@H](CCC(=O)O)C(=O)N[C@@H](CCC(N)=O)C(=O)N[C@H](C(=O)N[C@@H](CC(C)C)C(=O)N[C@@H](C)C(=O)N[C@@H](CCC(N)=O)C(=O)N[C@H](C(N)=O)C(C)C)[C@@H](C)CC)[C@@H](C)O)[C@@H](C)CC)[C@@H](C)CC)C(C)C)C(C)C

Target: human corticotropin-releasing factor 2a (CRF2a receptor) (human), Q13324
Sequence (Q13324 20-411): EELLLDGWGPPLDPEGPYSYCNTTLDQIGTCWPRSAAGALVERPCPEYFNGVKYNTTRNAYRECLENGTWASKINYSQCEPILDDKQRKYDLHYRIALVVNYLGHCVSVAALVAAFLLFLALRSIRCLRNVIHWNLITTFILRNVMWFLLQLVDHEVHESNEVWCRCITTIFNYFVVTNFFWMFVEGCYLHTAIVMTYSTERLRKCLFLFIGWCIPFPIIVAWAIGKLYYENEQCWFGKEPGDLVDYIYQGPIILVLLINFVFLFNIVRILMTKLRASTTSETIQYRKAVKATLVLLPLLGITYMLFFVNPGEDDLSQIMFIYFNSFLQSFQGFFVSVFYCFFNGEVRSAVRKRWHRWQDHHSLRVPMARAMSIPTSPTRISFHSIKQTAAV
Test: cell-based or functional assay

Row | Binder | EC50 [nM] (cAMP)
1 | B1 | 0.07
2 | B2 | 0.09
3 | B3 | 0.17
4 | B4 | 0.17
5 | B5 | 0.76
6 | B6 | 0.08

Target: T1, CRF1R receptor
Test: cell-based or functional assay

Row | Binder | Emax (% I) [%]
7 | B1 | 9
8 | B2 | 3
9 | B3 | 0
10 | B4 | 10
11 | B5 | 4
12 | B6 | 4

Source: patent publication US20260001928A1 (CORTERIA PHARMACEUTICALS, priority 2022, published 2026)
